T1: human FcγRIIb extracellular domain, C-terminal His-tag (human, UniProt P31994 43-217)
T1 construct: also called FcgRIIb (human); not shown: His-tag added to C-terminus
T1 sequence: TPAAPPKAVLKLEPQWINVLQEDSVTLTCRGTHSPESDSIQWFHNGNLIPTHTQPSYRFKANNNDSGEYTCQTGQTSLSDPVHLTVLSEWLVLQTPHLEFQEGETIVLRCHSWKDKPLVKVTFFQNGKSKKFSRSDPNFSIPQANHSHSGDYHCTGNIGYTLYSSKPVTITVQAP


Biological target: T1, human FcγRIIb extracellular domain, …
Test: SPR (Biacore), KD of SG1 / KD of variant;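 note: relative to parent M103205H795-SG1 carrying the SG1 human heavy chain constant region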

Row | Binder | KD fold (SG1 = 1) [fold]
1 | MS_M103205H795-SG1/M103202L889-SK1 (antibody, human IgG1, kappa, Parent antibody; also called MS1032LO06-SG1) heavy: not shown light: DIVMTQSPATLSLSPGERATLSCTSSQSVYHANWLSWFQQKPGQPPKLLIYWASTLAYGVPSRFSGSGSGTDFTLTISSLQPEDAATYYCAGGYGGGRYAFGQGTKVEIKRTVAAPSVFIFPPSDEQLKSGTASVVCLLNNFYPREAKVQWKVDNALQSGNSQESVTEQDSKDSTYSLSSTLTLSKADYEKHKVYACEVTHQGLSSPVTKSFNRGEC | 1
2 | M103205H795-MY209/M103202L889-SK1 (antibody, human IgG1, kappa) heavy: QVTLKESGPVLVKPTETLTLTCTVSGIDLSHDDISWVRQAPGKGLEWVGIISYAGSTYYASWAKGRLTISKDTSKNQVVLTMTNMDPVDTATYYCARGVPAYSHGGDLWGQGTLVTVSSASTKGPSVFPLAPSSKSTSGGTAALGCLVKDYFPEPVTVSWNSGALTSGVHTFPAVLQSSGLYSLSSVVTVPSSSLGTQTYICNVNHKPSNTKVDKKVEPKSCDKTHTCPPCPAPELLNGPSVFLFPPKPKDTLMISRTPEVTCVVVDVSDEDPEVKFNWYVDGVEVHNAKTKPREELYNSTYRVVSVLTVLHQDWLNGKEYKCKVSNTALPKPIEKTISKAKGQPREPQVYTLPPSREEMTKNQVSLTCLVKGFYPSDIAVEWESNGQPENNYKTTPPVLDSDGSFFLYSKLTVDKSRWQQGNVFSCSVMHEALHNHYTQKSLSLSP light: DIVMTQSPATLSLSPGERATLSCTSSQSVYHANWLSWFQQKPGQPPKLLIYWASTLAYGVPSRFSGSGSGTDFTLTISSLQPEDAATYYCAGGYGGGRYAFGQGTKVEIKRTVAAPSVFIFPPSDEQLKSGTASVVCLLNNFYPREAKVQWKVDNALQSGNSQESVTEQDSKDSTYSLSSTLTLSKADYEKHKVYACEVTHQGLSSPVTKSFNRGEC | 9.2

Other lines, results leading:

Row | KD fold (SG1 = 1) [fold] | Binder
3 | 4.8 | M103205H795-MY142/M103202L889-SK1 (antibody, human IgG1, kappa) heavy: QVTLKESGPVLVKPTETLTLTCTVSGIDLSHDDISWVRQAPGKGLEWVGIISYAGSTYYASWAKGRLTISKDTSKNQVVLTMTNMDPVDTATYYCARGVPAYSHGGDLWGQGTLVTVSSASTKGPSVFPLAPSSKSTSGGTAALGCLVKDYFPEPVTVSWNSGALTSGVHTFPAVLQSSGLYSLSSVVTVPSSSLGTQTYICNVNHKPSNTKVDKKVEPKSCDKTHTCPPCPAPELLEGPSVFLFPPKPKDTLMISRTPEVTCVVVDVSEEDPEVKFNWYVDGVEVHNAKTKPREEQYNSTYRVVSVLTVLHQDWLNGKEYKCKVSNKALPAPIEKTISKAKGQPREPQVYTLPPSREEMTKNQVSLTCLVKGFYPSDIAVEWESNGQPENNYKTTPMVLDSDGSFFLYSKLTVDKSRWQQGNVFSCSVMHEALHNHYTQKSLSLSP light: DIVMTQSPATLSLSPGERATLSCTSSQSVYHANWLSWFQQKPGQPPKLLIYWASTLAYGVPSRFSGSGSGTDFTLTISSLQPEDAATYYCAGGYGGGRYAFGQGTKVEIKRTVAAPSVFIFPPSDEQLKSGTASVVCLLNNFYPREAKVQWKVDNALQSGNSQESVTEQDSKDSTYSLSSTLTLSKADYEKHKVYACEVTHQGLSSPVTKSFNRGEC
4 | 6.3 | M103205H795-MY143/M103202L889-SK1 (antibody, human IgG1, kappa) heavy: QVTLKESGPVLVKPTETLTLTCTVSGIDLSHDDISWVRQAPGKGLEWVGIISYAGSTYYASWAKGRLTISKDTSKNQVVLTMTNMDPVDTATYYCARGVPAYSHGGDLWGQGTLVTVSSASTKGPSVFPLAPSSKSTSGGTAALGCLVKDYFPEPVTVSWNSGALTSGVHTFPAVLQSSGLYSLSSVVTVPSSSLGTQTYICNVNHKPSNTKVDKKVEPKSCDKTHTCPPCPAPELLSGPSVFLFPPKPKDTLMISRTPEVTCVVVDVSEEDPEVKFNWYVDGVEVHNAKTKPREEQYNSTYRVVSVLTVLHQDWLNGKEYKCKVSNKALPAPIEKTISKAKGQPREPQVYTLPPSREEMTKNQVSLTCLVKGFYPSDIAVEWESNGQPENNYKTTPMVLDSDGSFFLYSKLTVDKSRWQQGNVFSCSVMHEALHNHYTQKSLSLSP light: DIVMTQSPATLSLSPGERATLSCTSSQSVYHANWLSWFQQKPGQPPKLLIYWASTLAYGVPSRFSGSGSGTDFTLTISSLQPEDAATYYCAGGYGGGRYAFGQGTKVEIKRTVAAPSVFIFPPSDEQLKSGTASVVCLLNNFYPREAKVQWKVDNALQSGNSQESVTEQDSKDSTYSLSSTLTLSKADYEKHKVYACEVTHQGLSSPVTKSFNRGEC

Source: patent US20200317768A1 (published 2020)
